# “And” between values parts separate entries of the source, which are not always exact repeats. Equal values may be shown once.
# Key:
# Assay in all cases: SEC; Superdex 200 (10/300), 4°C, protein at 1 mg/mL, 20 mM HEPES-NaOH pH 7.5, 1.0 M NaCl, 20 µM ZnCl2, 5 mM β-mercaptoethanol; dimer, and dimer to tetramer
# [1] = molecular target: RSV IN(1–270) (Rous sarcoma virus (Prague A strain))
# [2] = molecular target: RSV IN(1–270)•C23S (Rous sarcoma virus (Prague A strain))
# [3] = molecular target: RSV IN(49–270) (Rous sarcoma virus (Prague A strain))
substance,measurement,setting,value
RSV IN(1–270) (domain or fragment),stoichiometry N,[1],2 and 4
RSV IN(1–270)•C23S (domain or fragment),stoichiometry N,[2],2
RSV IN(49–270) (domain or fragment),stoichiometry N,[3],2

# Source: paper PMC3579926
